What was measured:
[1] = 4APAL activity of Escherichia coli recombinant enzyme crude extract; type: biochemical; conditions: crude cell extract, BL21(DE3), 20 mM substrate
Description: (§1) [Measurement of Enzyme Activity of Escherichia coli Recombinant Enzyme Crude Extract]
(§2) Escherichia coli was inoculated into 5 ml of LB medium containing 100 mg/L ampicillin sodium or 100 mg/L kanamycin sulfate, and cultured overnight at 37° C. It was then inoculated into 200 ml of the same culture medium and cultured to an O.D. of 0.6, isopropyl-β-thiogalactopyranoside (IPTG) was added to a final concentration of 0.5 mM, and culturing was conducted for 12 hours at 28° C.
(§3) The cultured cells were collected and suspended in 20 mM potassium phosphate buffer (pH 7.5) and subjected to ultrasonic disruption and the supernatant was used as a crude extract for activity measurement. The enzyme activity was measured and quantified by measuring the absorbance at the absorption wavelength of the reaction product using a spectrophotometer, for a period of 5 minutes. For PAL activity, the crude extract was added to 100 mM Tris Buffer (pH 8.0) and 20 mM phenylalanine, reaction was conducted, and production of cinnamic acid was measured by the change in absorbance at a wavelength of 290 nm, while for 4APAL activity, 20 mM 4-aminophenylalanine was used as substrate and the absorbance at a wavelength of 315 nm due to 4-aminocinnamic acid was measured and quantified.

[2] = Resting cell reaction, production of cinnamic acid; type: cell-based, Escherichia coli; conditions: 4-aminophenylalanine alone as substrate
Description: (§4) Escherichia coli was cultured at 37° C. using LB medium containing 100 mg/L ampicillin sodium or 100 mg/L kanamycin sulfate. One platinum loop of the cells was transferred from pregrown agar medium to a test tube containing 5 ml of culture medium, and shake-culture was conducted overnight at 120 rpm.
(§5) The precultured cells were transferred at 1% into 200 ml of the same medium in a baffle-equipped flask. Shake-culture was conducted at 37° C., a prescribed amount of IPTG was added at the point when the O.D. of the culture broth reached 0.3, and the culture was conducted at 28° C. for 12 hours to induce production of the target gene.
(§6) The main cultured cells were collected and rinsed once with 50 mM KPi Buffer (pH 7), and then suspended in 5 ml of a reaction mixture containing 20 mM substrate (4-aminophenylalanine, phenylalanine), for resting cell reaction. The reaction was conducted for 0 to 24 hours while shaking at 37° C. After the reaction, the supernatant was transferred to a centrifuge tube and recovered by centrifugal separation, and high-performance liquid chromatography (HPLC) was used in the following manner for quantitation of the reaction product.
HPLC (1200 infinity series: Hewlett Packard) was used for quantitation. A Purospher STAR RP-18 endcapped column was used, with a mixture of 20 mM potassium phosphate (pH 7.0) and 100% methanol as the eluent. […]

[3] = PAL activity of Escherichia coli recombinant enzyme crude extract; type: biochemical; conditions: crude cell extract, BL21(DE3), 20 mM substrate
Description: as §1, §2, §3

[4] = Km and kcat of recombinant purified enzyme for phenylalanine; type: biochemical; conditions: purified His-tag enzyme
Description: (§7) [Measurement of Enzyme Activity of Escherichia coli Recombinant Purified Enzyme]
(§8) Escherichia coli was inoculated into 5 ml of LB medium containing 100 mg/L ampicillin sodium or 100 mg/L kanamycin sulfate, and cultured overnight at 37° C. It was then used to inoculate 200 ml of the same culture medium and cultured to an O.D of 0.6, IPTG was added to a final concentration of 0.5 mM, and the incubation was continued for 12 hours at 28° C. The rotational speed during cultures was 120 rpm. The cultured cells were collected and suspended in 20 mM potassium phosphate buffer (pH 7.5) and subjected to ultrasonic disruption, and after centrifugal separation, the supernatant was purified using a His-Trap column and the enzyme activity was measured. The method of measuring the enzyme activity was according to the method for the crude extract described above.
(§9) Since pET28AtPAL4 and its mutants and RgPAL were produced as fusion proteins with His-tag in the Escherichia coli of Example 3, these enzymes could be easily purified using an affinity column. After culturing the producing cells, the cells were collected, disrupted and purified. The purified enzymes were used to calculate the Km values and kcat values.

[5] = Resting cell reaction, production of 4-aminocinnamic acid; type: cell-based, Escherichia coli
Description: as §4, §5, §6
HPLC (1200 infinity series: Hewlett Packard) was used for quantitation. A Purospher STAR RP-18 endcapped column was used, with a mixture of 20 mM potassium phosphate (pH 7.0) and 100% methanol as the eluent. Measurement was carried out using absorption at wavelengths of 210 nm, 254 nm and 280 nm.
The Escherichia coli BL21-pET28a-RgPAL cells were prepared by the following method. Escherichia coli BL21-pET28a-RgPAL was shake cultured overnight at 37° C., 120 rpm using medium containing 100 mg/L kanamycin sulfate in 5 ml of LB medium (1% tryptone, 0.5% yeast extract, 0.5% sodium chloride). A 2 mL portion of the obtained cell culture solution was transferred into 200 ml of the same medium in a 500 mL-volume Erlenmeyer flask, and then shake cultured at 37° C., 120 rpm. IPTG was added when the optical density of the culture reached 0.3, and shake culture was conducted at 28° C., 120 rpm for 12 hours. The obtained Escherichia coli BL21-pET28a-RgPAL cells were collected by centrifugal separation and rinsed once with 50 mM potassium phosphate (pH 7), after which they were suspended in the same buffer containing 20 mM of substrate (4-aminophenylalanine or phenylalanine), and incubated for 24 hours while shaking at 37° C. After the reaction, the produced 4-aminocinnamic acid or cinnamic acid was quantified using HPLC. Reaction was also carried out in aqueous 50 mM potassium phosphate at pH 8 or 9, using the same method as above. […] In particular, the conversion efficiency increased by 12-fold at pH 7.

[6] = Km and kcat of recombinant purified enzyme for 4-aminophenylalanine; type: biochemical; conditions: purified His-tag enzyme
Description: as §7, §8, §9

B1: RgPAL: PAL derived from the yeast Rhodotorula glutinis, amino acid sequence SEQ ID NO: 2 (protein)
chain: MAPSVDSIATSVANSLSNGLAGDLRKKTSGAGSLLPTTETTQIDIVERILADAGATDQIKLDGYTLTLGDVVGAARRGRTVKVADSPQIREKIDASVEFLRTQLDNSVYGVTTGFGGSADTRTEDAISLQKALLEHQLCGVLPTSMDGFALGRGLENSLPLEVVRGAMTIRVNSLTRGHSAVRIVVLEALTNFLNHGITPIVPLRGTISASGDLSPLSYIAASITGHPDSKVHVDGQIMSAQEAIALKGLQPVVLGPKEGLGLVNGTAVSASMATLALTDAHVLSLLAQANTALTVEAMVGHAGSFHPFLHDVTRPHPTQIEVARNIRTLLEGSKYAVHHETEVKVKDDEGILRQDRYPLRCSPQWLGPLVSDMIHAHSVLSLEAGQSTTDNPLIDLENKMTHHGGAFMASSVGNTMEKTRLAVALMGKVSFTQLTEMLNAGMNRALPSCLAAEDPSLSYHCKGLDIAAAAYTSELGHLANPVSTHVQPAEMGNQAINSLALISARRTAEANDVLSLLLATHLYCVLQAVDLRAMEFEHTKEFEPMVTDLLKQHFGALATADVEDKVRKSIYKRLQQNNSYDLEQRWHDTFSVATGAVVEALAGNEVSLASLNAWKVACAEKAIALTRTVRDSFWAAPSSASPALKYLSPRTRILYSFVREDVGVKARRGDVYLGKQEVTIGTNVSRIYEAIKDGRIAPVLVKMMA
modifications: RgPAL cDNA
With B1 the “4APAL activity compared to AtPAL4” value [1] was 8 fold, the “4APAL activity compared to AtPAL4” value ([1]; listed as enzyme of the invention) was “approximately 8 fold” and the “cinnamic acid produced compared to AtPAL4” value [2] was 36%. For the same molecule, the “PAL activity compared to AtPAL4” value [3] was 8.5 fold, the “Kcat value, Phenylalanine” value [4] was 3.4 s⁻¹ and the Km [4] was 0.098 mM. For the same molecule, the “4-aminocinnamic acid production reached” value [5] was “about 1 g/L”, the “4-aminocinnamic acid amount compared to AtPAL4” value ([5]; 4-aminophenylalanine alone as substrate) was 12 times and the “conversion efficiency increase compared to AtPAL4” value ([5]; pH 7) was 12 fold. For the same molecule, the “4-aminocinnamic acid produced, maximum” value ([5]; resting cells reaction) was 825 mg/L, the “Kcat value, 4-Aminophenylalanine” value [6] was 0.44 s⁻¹ and the Km [6] was 22 mM.
